Laboratory results taken from patent publication US20240124576A1 (SHANGHAI JEMINCARE PHARMACEUTICAL, published 2024).

T1: human Siglec-15 (Acro, Cat. No. SG5-H52H3) (human, UniProt Q6ZMC9 20-263)
T1 construct: Bought reagent used as the analyte in the Octet assay; also called antigen
T1 sequence (looked up): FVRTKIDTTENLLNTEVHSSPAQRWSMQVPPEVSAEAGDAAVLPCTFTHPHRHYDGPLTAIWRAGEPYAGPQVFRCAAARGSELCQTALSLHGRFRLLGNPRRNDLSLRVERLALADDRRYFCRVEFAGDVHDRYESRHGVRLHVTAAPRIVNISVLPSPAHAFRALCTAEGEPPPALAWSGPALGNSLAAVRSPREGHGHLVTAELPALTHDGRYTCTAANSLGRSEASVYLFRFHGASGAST


What follows are binders tested against T1, human Siglec-15 (Acro, Cat. No. …) (assay: BLI (Octet RED96e), antibody captured on AHC sensor, 30 nM antigen, 1:1 fit; second assay).
Parameters: Response value: unit not given here
Description: Affinity of Siglec-15 binding protein of the present application to human Siglec-15 (Acro, Cat. No.: SG5-H52H3) was determined using Octet RED96e (Fortebio), both of the antigen and the Siglec-15 binding protein of the present application were diluted with 1×PBST (1×PBS: Sangon, B548117-0500; 0.02% Tween 20: Sigma-aldrich, P1379). The antigen is used at a concentration of 30 nM and the Siglec-15 binding protein of the present application is used at a concentration of 33.3 nM.
First, a sample was added to a 96-well plate (Greiner bio-one, 655209) in a system of 200 μL/well. Software parameters were then set, the plate temperature was set to 30° C., and the frequency at which the standard kinetic signal was collected was 5.0 Hz. Next, the AHC sensor (Fortébio, Cat. No.: 18-0015) was pre-wetted with 1×PBST for 10 min, then the sample was loaded on the machine for detection, with each cycle containing the following steps: 1) immersing the sample in buffer for 60 s; 2) detecting whether the antigen has non-specific binding to the sensor; 3) regenerating in a 10 mM glycine solution at pH 1.7; 4) immersing in buffer for 60 s; 5) immobilizing the Siglec-15 binding protein of the present application on the sensor for 20 s; 6) immersing the sensor in buffer for 180 s; 7) binding the antigen to the Siglec-15 binding protein of the present application for 180 s; 8) dissociating the antigen with Siglec-15 binding protein of the present application for 10 min; and 9) regenerating the sensor.
The equilibrium dissociation constant (KD) of the Siglec-15 binding protein of the present application was calculated by determining the binding rate constant (kon) and dissociation rate constant (kdis) of the antigen-Siglec-15 binding protein of the present application in a 1:1 binding manner using Data Analysis 12.0 software fromx Fortebio.

Binder	Kd	Response value	koff	kon
Ab2, purified Siglec-15 binding protein in the form of IgG1 (antibody, V domains shown, Expressed in ExpiCHO cells in the form of IgG1) VH: EVQLLESGGGLVQPGGSLRLSCAASGFTSSSYAMSWVRQAPGKGLEWVSTISGGGGSTYYADSVKGRFTISRDNSKNTLYLQMNSLRAEDTAVYYCAKAIGSSWYSDAFDLWGQGTMVTVSS VL: DIQMTQSPSSVSASVGDRVTITCRASQDISSWLAWYQQKPGKAPKLLIYVASSLQSGVPSRFSGSGSGTDFTLTISSLQPEDFATYYCQQSYSIPYTFGQGTKLEIKR	0.155 nM	0.262	6.96e-05 s⁻¹	448000 M⁻¹ s⁻¹
Ab13, purified Siglec-15 binding protein in the form of IgG1 (antibody, V domains shown, Expressed in ExpiCHO cells in the form of IgG1) VH: EVQLLESGGGLVQPGGSLRLSCAASGFTFSSYAMSWVRQAPGKGLEWVSTITGGGESTYYADSVKGRFTISRDNSKNTLYLQMNSLRAEDTAVYYCAKAIGSSWYSDAFDLWGQGTMVTVSS VL: DIQMTQSPSSVSASVGDRVTITCRASQDISSWLAWYQQKPGKAPKLLIYVASFEHRGVPSRFSGSGSGTDFTLTISSLQPEDFATYYCQQSYSIPYTFGQGTKLEIKR	0.0681 nM	0.305	3.79e-05 s⁻¹	556000 M⁻¹ s⁻¹
Ab3, purified Siglec-15 binding protein in the form of IgG1 (antibody, V domains shown, Expressed in ExpiCHO cells in the form of IgG1) VH: EVQLLESGGGLVQPGGSLRLSCAASGFTFSSYAMSWVRQAPGKGLEWVSTITGGGESTYYADSVKGRFTISRDNSKNTLYLQMNSLRAEDTAVYYCAKAIGSSWYSDAFDLWGQGTMVTVSS VL: DIQMTQSPSSVSASVGDRVTITCRASQDISSWLAWYQQKPGKAPKLLIYVASSLQSGVPSRFSGSGSGTDFTLTISSLQPEDFATYYCQQSYSIPYTFGQGTKLEIKR	0.0444 nM	0.288	1.95e-05 s⁻¹	440000 M⁻¹ s⁻¹

These reach a lower Kd. Values come first.

Kd	Response value	koff	kon	Binder
0.00508 nM	0.284	1.44e-06 s⁻¹	282000 M⁻¹ s⁻¹	Ab7, purified Siglec-15 binding protein in the form of IgG1 (antibody, V domains shown, Expressed in ExpiCHO cells in the form of IgG1) VH: EVQLLESGGGLVQPGGSLRLSCAASGFTFSSYAMSWVRQAPGKGLEWVSTISGGGVYTYYADSVKGRFTISRDNSKNTLYLQMNSLRAEDTAVYYCAKAIGSSWYSDAFDLWGQGTMVTVSS VL: DIQMTQSPSSVSASVGDRVTITCRASQDISSWLAWYQQKPGKAPKLLIYVASSLQSGVPSRFSGSGSGTDFTLTISSLQPEDFATYYCQQSYSIPYTFGQGTKLEIKR
0.00843 nM	0.285	2.87e-06 s⁻¹	340000 M⁻¹ s⁻¹	Ab6, purified Siglec-15 binding protein in the form of IgG1 (antibody, V domains shown, Expressed in ExpiCHO cells in the form of IgG1) VH: EVQLLESGGGLVQPGGSLRLSCAASGFTFSSYAMSWVRQAPGKGLEWVSTIWGGGGSTYYADSVKGRFTISRDNSKNTLYLQMNSLRAEDTAVYYCAKAIGSSWYSDAFDLWGQGTMVTVSS VL: DIQMTQSPSSVSASVGDRVTITCRASQDISSWLAWYQQKPGKAPKLLIYVASSLQSGVPSRFSGSGSGTDFTLTISSLQPEDFATYYCQQSYSIPYTFGQGTKLEIKR
0.0076 nM	0.277	2.57e-06 s⁻¹	338000 M⁻¹ s⁻¹	Ab5, purified Siglec-15 binding protein in the form of IgG1 (antibody, V domains shown, Expressed in ExpiCHO cells in the form of IgG1) VH: EVQLLESGGGLVQPGGSLRLSCAASGFTFSSYAMSWVRQAPGKGLEWVSTIYGGGGSTYYADSVKGRFTISRDNSKNTLYLQMNSLRAEDTAVYYCAKAIGSSWYSDAFDLWGQGTMVTVSS VL: DIQMTQSPSSVSASVGDRVTITCRASQDISSWLAWYQQKPGKAPKLLIYVASSLQSGVPSRFSGSGSGTDFTLTISSLQPEDFATYYCQQSYSIPYTFGQGTKLEIKR
